# ± gives the uncertainty stated by the source.
# B1: FERM and PDZ domain-containing protein 4, residues 75 to 154; numbered along this chain, Q14CM0 (parent)
# chain: APRKVEMRRDPVLGFGFVAGSEKPVVVRSVTPGGPSEGKLIPGDQIVMINDEPVSAAPRERVIDLVRSCKESILLTVIQP
# Variants of: B1
# Experiment: abundance fitness (aPCA) (normalised: wild type 0, dead -1); higher = more abundant; growth selection in yeast, the domain comes from the species named
# Settings: Homo sapiens
row,Variant,abundance fitness
1,L75Y,-0.749 ± 0.13
2,L75P,-0.185 ± 0.075
3,P35N,-0.213 ± 0.053
4,P35I,-0.622 ± 0.088
5,P35D,-0.737 ± 0.07
6,P35Q,-0.33 ± 0.038
7,P35E,-0.35 ± 0.037
8,V18E,-0.019 ± 0.025
9,V18G,-0.112 ± 0.02
10,V18S,-0.095 ± 0.027
11,V18D,-0.055 ± 0.035
12,V18M,-0.075 ± 0.034
13,V18I,-0.01 ± 0.038
14,V18N,-0.104 ± 0.049
15,E37T,-0.126 ± 0.029
16,E37L,-0.235 ± 0.026
17,E37P,-0.985 ± 0.059
18,E37N,-0.106 ± 0.045
19,E37R,-0.211 ± 0.022
20,E37G,-0.173 ± 0.021
21,G34W,-1.1 ± 0.063
22,G34E,-0.999 ± 0.065
23,G34N,-1.07 ± 0.13
24,V54N,-0.945 ± 0.072

row,Variant,abundance fitness
1,V54T,-0.13 ± 0.028
2,V54E,-0.771 ± 0.073
3,P80E,-0.164 ± 0.053
4,P80Q,0 ± 0.05
5,P80M,-0.181 ± 0.048
6,P80G,-0.074 ± 0.036
7,P80F,-0.387 ± 0.13
8,P80N,-0.058 ± 0.085
9,P80Y,-0.356 ± 0.07
10,P80K,-0.138 ± 0.054
11,S21V,-0.25 ± 0.026
12,S21F,-0.021 ± 0.037
13,S21R,-0.082 ± 0.022
14,S21P,-0.169 ± 0.031
15,S21H,-0.028 ± 0.048
16,S21L,-0.049 ± 0.026
17,S21C,-0.047 ± 0.033
18,I78N,-0.049 ± 0.033
19,I78H,-0.015 ± 0.036
20,I78A,0.028 ± 0.021
21,I78C,-0.029 ± 0.027
22,I78Y,-0.053 ± 0.033
23,K70D,-0.055 ± 0.038
24,K70E,-0.061 ± 0.033

row,Variant,abundance fitness
1,K70R,-0.081 ± 0.024
2,K70T,-0.098 ± 0.026
3,K70N,-0.076 ± 0.03
4,R3T,-0.338 ± 0.029
5,R3V,-0.165 ± 0.022
6,R3K,-0.036 ± 0.029
7,R3H,-0.176 ± 0.038
8,R3Y,-0.197 ± 0.038
9,R3S,-0.451 ± 0.026
10,R3G,-0.666 ± 0.025
11,R3F,-0.194 ± 0.033
12,I73L,-0.023 ± 0.029
13,I73P,-0.57 ± 0.061
14,I73G,-0.565 ± 0.032
15,I73V,-0.025 ± 0.027
16,G33Q,-0.122 ± 0.034
17,G33M,-0.124 ± 0.033
18,G33T,-0.157 ± 0.031
19,R8C,-0.12 ± 0.044
20,R8M,-0.014 ± 0.042
21,R8N,-0.09 ± 0.062
22,R59M,-0.039 ± 0.028
23,R59P,-0.025 ± 0.026
24,R59E,-0.05 ± 0.027

row,Variant,abundance fitness
1,R59T,-0.03 ± 0.026
2,P58M,-0.217 ± 0.03
3,P58R,-0.063 ± 0.02
4,P58L,-0.24 ± 0.024
5,P58I,-0.29 ± 0.04
6,N50G,0 ± 0.02
7,N50M,-0.187 ± 0.028
8,N50P,-0.919 ± 0.05
9,N50A,-0.143 ± 0.023
10,N50W,-0.173 ± 0.025
11,N50I,-0.607 ± 0.066
12,N50E,-0.054 ± 0.026
13,N50V,-0.695 ± 0.029
14,V47C,-0.032 ± 0.04
15,V47Y,-0.019 ± 0.04
16,V47I,0.018 ± 0.032
17,V47R,-0.192 ± 0.033
18,V47D,-0.084 ± 0.048
19,V47Q,-0.045 ± 0.04
20,V47E,-0.083 ± 0.059
21,D51P,-0.821 ± 0.051
22,D51F,-0.194 ± 0.044
23,D51N,-0.047 ± 0.035
24,D51Y,-0.145 ± 0.044

row,Variant,abundance fitness
1,Q79T,0.028 ± 0.024
2,Q79V,-0.236 ± 0.021
3,L65G,-0.377 ± 0.022
4,L65M,-0.002 ± 0.031
5,L65N,-0.349 ± 0.043
6,L65H,-0.205 ± 0.047
7,L65S,-0.178 ± 0.024
8,S68Y,-0.089 ± 0.037
9,S68C,-0.082 ± 0.032
10,S68F,-0.099 ± 0.037
11,S68M,-0.071 ± 0.028
12,S68T,-0.043 ± 0.026
13,E22G,-0.026 ± 0.021
14,E22S,-0.126 ± 0.025
15,E22Q,-0.029 ± 0.035
16,E22C,-0.074 ± 0.034
17,S55F,-0.143 ± 0.055
18,G43W,-0.402 ± 0.026
19,G43V,-0.991 ± 0.04
20,G43H,-0.204 ± 0.043
21,G43N,-0.131 ± 0.041
22,M7A,-0.213 ± 0.024
23,M7G,-0.877 ± 0.031
24,E6A,-0.086 ± 0.022

row,Variant,abundance fitness
1,E6K,0.002 ± 0.029
2,E6Y,0.007 ± 0.037
3,E6H,0.039 ± 0.039
4,E6S,-0.016 ± 0.023
5,L40A,-0.871 ± 0.039
6,L40G,-1.01 ± 0.034
7,M48E,-0.028 ± 0.037
8,M48V,-0.127 ± 0.027
9,M48K,-0.046 ± 0.03
10,M48R,-0.046 ± 0.023
11,M48H,-0.121 ± 0.031
12,M48I,-0.154 ± 0.03
13,P11A,-0.137 ± 0.028
14,P11Y,-0.391 ± 0.085
15,P11D,-0.063 ± 0.048
16,P11G,-0.128 ± 0.021
17,K39C,-0.036 ± 0.03
18,K39M,-0.045 ± 0.028
19,K39T,-0.201 ± 0.029
20,V27L,-0.584 ± 0.031
21,V27N,-0.851 ± 0.099
22,V27G,-0.938 ± 0.032
23,V27F,-0.79 ± 0.092
24,V27Y,-1.02 ± 0.17

row,Variant,abundance fitness
1,V66R,-0.818 ± 0.028
2,V66L,0.022 ± 0.022
3,V66M,-0.004 ± 0.029
4,V66W,-0.475 ± 0.029
5,V66F,-0.056 ± 0.033
6,I41N,0.032 ± 0.039
7,I41E,0.015 ± 0.025
8,I41S,0.033 ± 0.024
9,I41W,-0.004 ± 0.025
10,I63F,0.016 ± 0.04
11,I63M,-0.027 ± 0.035
12,I63V,-0.002 ± 0.032
13,I63T,-0.061 ± 0.033
14,I63W,-0.041 ± 0.043
15,I63H,-0.003 ± 0.039
16,V30M,-0.335 ± 0.035
17,V30E,-0.901 ± 0.048
18,V30T,-0.089 ± 0.029
19,V30W,-0.756 ± 0.037
20,V30Y,-0.521 ± 0.049
21,V30L,-0.115 ± 0.024
22,V12Y,-0.065 ± 0.049
23,V12R,-0.023 ± 0.027
